Drawing on patent US20150344570A1 (published 2015), this text covers He/Con_2b for 21 molecules.

The target in the assay is T1, FcγRIIb extracellular domain with C-terminal His tag (human, UniProt P31994 43-217).
T1 construct: extracellular domain; also called FcgRIIb; 2b; not shown: His tag at the C terminus
T1 sequence (looked up): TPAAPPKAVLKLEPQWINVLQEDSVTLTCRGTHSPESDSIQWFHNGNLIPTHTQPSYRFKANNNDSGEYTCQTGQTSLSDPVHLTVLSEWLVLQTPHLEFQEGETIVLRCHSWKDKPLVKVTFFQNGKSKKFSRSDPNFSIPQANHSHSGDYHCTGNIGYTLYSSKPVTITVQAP
Nature of the assay: SPR, relative binding, HeCon Ab = 100. The method, then:
Analysis of interaction between objective antibody and the FcγR was carried out using Biacore T100 (GE Healthcare). HBS-EP+ (GE Healthcare) was used as the running buffer, and the measurement temperature was set to 25° C. Chips produced by immobilizing the antigen peptide by the amine coupling method to a Series S Sencor Chip CM5 (GE Healthcare), or alternatively, chips produced by allowing preliminarily biotinylated antigen peptides to interact with and immobilize onto a Series S Sensor Chip SA (certified) (GE Healthcare) were used. Antibodies of interest were captured onto an antigen peptide-immobilized chip, and allowed to interact to each FcγR diluted with running buffer. To regenerate and repeatedly use the chip, the antibodies captured on the chip were washed off by reacting 10 mM glycine-HCl, pH 1.5.
(In SPR one partner is held on a chip, and binding of the other changes the refractive index at the surface.)

B1: GpH7-A5/GpH7-B3 variant H268_13S/GpL16-k0 (antibody, human IgG1, kappa)
heavy 1: not shown
heavy 2: not shown
light: DIVMTQSPLSLPVTPGEPASISCQASESLVHSNRNTYLHWYLQKPGQSPQLLIYKVSNRFSGVPDRFSGSGSGTDFTLKISRVEAEDVGVYYCSQNTHVPPTFGQGTKVEIERTVAAPSVFIFPPSDEQLKSGTASVVCLLNNFYPREAKVQWKVDNALQSGNSQESVTEQDSKDSTYSLSSTLTLSKADYEKHKVYACEVTHQGLSSPVTKSFNRGEC
notes: also called He Ab H268_13S
As to B1, the He/Con_2b is 160 % of control.

B2: GpH7-A5/GpH7-B3 variant K326_16H/GpL16-k0 (antibody, human IgG1, kappa)
heavy 1: not shown
heavy 2: not shown
light: B1 light
notes: also called He Ab K326_16H
As to B2, the He/Con_2b is 119 % of control.

B3: GpH7-A5/GpH7-B3 variant K326_20W/GpL16-k0 (antibody, human IgG1, kappa)
heavy 1: not shown
heavy 2: not shown
light: B1 light
notes: also called He Ab K326_20W
As to B3, the He/Con_2b was 148 % of control.

B4: GpH7-A5/GpH7-B3 variant I332_15Y/GpL16-k0 (antibody, human IgG1, kappa)
heavy 1: not shown
heavy 2: not shown
light: B1 light
notes: also called He Ab I332_15Y
As to B4, the He/Con_2b was 101 % of control.

B5: GpH7-A5/GpH7-B3 variant I332_10E/GpL16-k0 (antibody, human IgG1, kappa)
heavy 1: not shown
heavy 2: not shown
light: B1 light
notes: also called He Ab I332_10E
On to B5, for which the He/Con_2b was 142 % of control.

B6: GpH7-A5/GpH7-B3 variant K326_19Q/GpL16-k0 (antibody, human IgG1, kappa)
heavy 1: not shown
heavy 2: not shown
light: B1 light
notes: also called He Ab K326_19Q
In the case of B6, the He/Con_2b was 139 % of control.

B7: GpH7-A5/GpH7-B3 variant K326_09D/GpL16-k0 (antibody, human IgG1, kappa)
heavy 1: not shown
heavy 2: not shown
light: B1 light
notes: also called He Ab K326_09D
Take B7: the He/Con_2b was 193 % of control.

B8: GpH7-A5/GpH7-B3 variant I336_08L/GpL16-k0 (antibody, human IgG1, kappa)
heavy 1: not shown
heavy 2: not shown
light: B1 light
notes: also called He Ab I336_08L
For the molecule B8, the He/Con_2b was 107 % of control.

B9: GpH7-A5/GpH7-B3 variant K326_10E/GpL16-k0 (antibody, human IgG1, kappa)
heavy 1: not shown
heavy 2: not shown
light: B1 light
notes: also called He Ab K326_10E
In the case of B9, the He/Con_2b is 200 % of control.

B10: GpH7-A5/GpH7-B3 variant H268_18N/GpL16-k0 (antibody, human IgG1, kappa)
heavy 1: not shown
heavy 2: not shown
light: B1 light
notes: also called He Ab H268_18N
Take B10: the He/Con_2b is 156 % of control.

B11: GpH7-A5/GpH7-B3 variant K334_02A/GpL16-k0 (antibody, human IgG1, kappa)
heavy 1: not shown
heavy 2: not shown
light: B1 light
notes: also called He Ab K334_02A
For B11, the He/Con_2b was 108 % of control.

B12: GpH7-A5/GpH7-B3 variant I332_09D/GpL16-k0 (antibody, human IgG1, kappa)
heavy 1: not shown
heavy 2: not shown
light: B1 light
notes: also called He Ab I332_09D
Turning to B12, the He/Con_2b was 147 % of control.

B13: GpH7-A5/GpH7-B3 variant K326_03V/GpL16-k0 (antibody, human IgG1, kappa)
heavy 1: not shown
heavy 2: not shown
light: B1 light
notes: also called He Ab K326_03V
As for B13, the He/Con_2b is 175 % of control.

B14: GpH7-A5/GpH7-B3 variant K326_04F/GpL16-k0 (antibody, human IgG1, kappa)
heavy 1: not shown
heavy 2: not shown
light: B1 light
notes: also called He Ab K326_04F
On to B14, for which the He/Con_2b was 155 % of control.

B15: GpH7-A5/GpH7-B3 variant I332_14T/GpL16-k0 (antibody, human IgG1, kappa)
heavy 1: not shown
heavy 2: not shown
light: B1 light
notes: also called He Ab I332_14T
Take B15: the He/Con_2b is 106 % of control.

B16: GpH7-A5/GpH7-B3 variant K326_15Y/GpL16-k0 (antibody, human IgG1, kappa)
heavy 1: not shown
heavy 2: not shown
light: B1 light
notes: also called He Ab K326_15Y
For B16, the He/Con_2b is 159 % of control.

B17: GpH7-A5/GpH7-B3 variant K326_06M/GpL16-k0 (antibody, human IgG1, kappa)
heavy 1: not shown
heavy 2: not shown
light: B1 light
notes: also called He Ab K326_06M
With B17, the He/Con_2b was 165 % of control.

B18: GpH7-A5/GpH7-B3 variant I332_04F/GpL16-k0 (antibody, human IgG1, kappa)
heavy 1: not shown
heavy 2: not shown
light: B1 light
notes: also called He Ab I332_04F
Turning to B18, the He/Con_2b was 104 % of control.

B19: GpH7-A5/GpH7-B3 variant K326_14T/GpL16-k0 (antibody, human IgG1, kappa)
heavy 1: not shown
heavy 2: not shown
light: B1 light
notes: also called He Ab K326_14T
As to B19, the He/Con_2b is 150 % of control.

B20: GpH7-A5/GpH7-B3 variant K326_08L/GpL16-k0 (antibody, human IgG1, kappa)
heavy 1: not shown
heavy 2: not shown
light: B1 light
notes: also called He Ab K326_08L
For B20, the He/Con_2b is 177 % of control.

B21: GpH7-A5/GpH7-B3 variant I332_06M/GpL16-k0 (antibody, human IgG1, kappa)
heavy 1: not shown
heavy 2: not shown
light: B1 light
notes: also called He Ab I332_06M
Consider B21, for which the He/Con_2b was 105 % of control.
